# Laboratory results reported in patent publication US20170283834A1, “Processes for Producing A Fermentation Product Using A Fermenting Organism” (Novozymes A/S, priority 2014, published 2017).
# Where a chain is given by its changes, count along the chain named. Names and notes keep the numbering of the source.
# B1: JTP082: protease variant of SEQ ID NO: 3: ΔS5/D79L/S87P/A112P/D142L (protein, listed as Thermoascus aurantiacus)
# chain: MRLVASLTALVALSVPVFPAAVNVKRASSYLEITLSQVSNTLIKAVVQNTGSDELSFVHLNFFKDPAPVKKVSVYRDGSEVQFEGILSRYKSTGLSRDAFTYLAPGESVEDVFDIASTYDLTSGGPVTIRTEGVVPYATANSTDIAGYISYSSNVLTIDVDGAAAATVSKAITPLDRRTRISCSGSRQSALTTALRNAASLANAAADAAQSGSASKFSEYFKTTSSSTRQTVAARLRAVAREASSSSSGATTYYCLDPYGYCSPNVLAYTLPSYNIIANCDIFYTYLPPLTSTCHAQDQATTALHEFTHAPGVYSPGTLDLAYGYQAAMGLSSSQAVMNADTYALYANAIYLGC
# B2: Pfu S: commercial Pyrococcus furiosus protease purchased from Takara Bio Inc, (Japan); SEQ ID NO: 13 (protein, listed as Pyrococcus furiosus)
# chain: AELEGLDESAAQVMATYVWNLGYDGSGITIGIIDTGIDASHPDLQGKVIGWVDFVNGRSYPYDDHGHGTHVASIAAGTGAASNGKYKGMAPGAKLAGIKVLGADGSGSISTIIKGVEWAVDNKDKYGIKVINLSLGSSQSSDGTDALSQAVNAAWDAGLVVVVAAGNSGPNKYTIGSPAAASKVITVGAVDKYDVITSFSSRGPTADGRLKPEVVAPGNWIIAARASGTSMGQPINDYYTAAPGTSMATPHVAGIAALLLQAHPSWTPDKVKTALIETADIVKPDEIADIAYGAGRVNAYKAINYDNYAKLVFTGYVANKGSQTHQFVISGASFVTATLYWDNANSDLDLYLYDPNGNQVDYSYTAYYGFEKVGYYNPTDGTWTIKVVSYSGSANYQVDVVSDGSLSQPGSS
# modifications: mat_peptide (1)..(412) Pyrococcus furiosus protease (Pfu)
# B3: JTP091: protease variant of SEQ ID NO: 3: D79L/S87P/A112P/T124V/D142L (protein, listed as Thermoascus aurantiacus)
# chain: MRLVASLTALVALSVPVFPAAVNVKRASSYLEITLSQVSNTLIKAVVQNTGSDELSFVHLNFFKDPAPVKKVSVYRDGSEVQFEGILSRYKSTGLSRDAFTYLAPGESVEDVFDIASTYDLTSGGPVTIRTEGVVPYATANSTDIAGYISYSSNVLTIDVDGAAAATVSKAITPLDRRTRISSCSGSRQSALTTALRNAASLANAAADAAQSGSASKFSEYFKTTSSSTRQTVAARLRAVAREASSSSSGATTYYCLDPYGYCSPNVLAYTLPSYNIIANCDIFYTYLPPLTSTCHAQDQAVTALHEFTHAPGVYSPGTLDLAYGYQAAMGLSSSQAVMNADTYALYANAIYLGC
# B4: JTP127: protease variant of SEQ ID NO: 3: D79L/S87P/A112P/T124V/A126V/D142L (protein, listed as Thermoascus aurantiacus)
# chain: B3 chain with A304V
# B5: JTP117: protease variant of SEQ ID NO: 3: D79L/Y82F/S87P/A112P/T124V/D142L (protein, listed as Thermoascus aurantiacus)
# chain: B3 chain with Y260F
# B6: JTP101: protease variant of SEQ ID NO: 3: A27K/D79L/S87P/A112P/T124V/D142L (protein, listed as Thermoascus aurantiacus)
# chain: B3 chain with A205K
# B7: JTP099: protease variant of SEQ ID NO: 3: D79L/P81R/S87P/A112P/D142L (protein, listed as Thermoascus aurantiacus)
# chain: B3 chain with P259R, V302T
# B8: JTP096: protease variant of SEQ ID NO: 3: T46R/D79L/S87P/T116V/D142L (protein, listed as Thermoascus aurantiacus)
# chain: B3 chain with T224R, P290A, T294V, V302T
# B9: JTP116: protease variant of SEQ ID NO: 3: D79L/Y82F/S87P/A112P/T124V/D142L (protein, listed as Thermoascus aurantiacus)
# chain: B3 chain with Y260F
# Experiments:
# Format in all cases: biochemical
# azo-casein = assay: Remaining activity assay of protease variants (azo-casein); conditions: pH 4.5, 4° C. as reference; for Remaining activity 84° C.: 10 min at 84° C.; for Remaining activity 80° C.: 10 min at 80° C.
# Protocol: Yeast clones on SC-glucose were inoculated to a well of a 96-well micro titre plate and cultivated at 28° C. for 3 days. Protease activity was measured at 65° C. using azo-casein (Megazyme) after incubating the culture supernatant in 20 mM sodium acetate buffer, pH 4.5, for 10 min at a certain temperature (80° C. or 84° C. with 4° C. as a reference) to determine the remaining activity. The clones with higher remaining activity than the parental variant were selected and the sequence was determined.
# 20 microL of samples were mixed with 150 microL of substrate solution (4 ml of 12.5% azo-casein in ethanol in 96 ml of 20 mM sodium acetate, pH 4.5, containing 0.01% triton-100 and 0.25 mM ZnSO4) and incubated for 4 hours or longer.
# After adding 20 microL/well of 100% trichloroacetic acid (TCA) solution, the plate was centrifuge and 100 microL of supernatants were pipette out to measure A440.
# zein [1] = assay: Relative activity assay of protease variants (zein micro titer plate); conditions: Table 4
# In short: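 Yeast culture supernatants (3 days, 28 °C) incubated over 4 h or overnight on zein-agar plates (pH 4.5 acetate, 0.25 mM ZnSO4) at two temperatures. Zein turbidity read at A630; higher/lower-temperature activity ratio gives relative thermoactivity.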
# zein [2] = assay: Thermostability of Protease Pfu (Relative Activity, methods of Example 2); conditions: pH 4.5
# Protocol: Yeast clones on SC-glucose were inoculated to a well of a 96-well micro titre plate containing YPD+Zn medium and cultivated at 28° C. for 3 days. The culture supernatants were applied to a 96-well zein micro titer plate and incubated at at least 2 temperatures (ex. 60° C. and 65° C., 70° C. and 75° C., 70° C. and 80° C.) for more than 4 hours or overnight. The turbidity of zein in the plate was measured as A630 and the relative activity (higher/lower temperatures) was determined as an indicator of thermoactivity improvement. The clones with higher relative activity than the parental variant were selected and the sequence was determined.
# The thermostability of the Pyrococcus furiosus protease (Pfu S) purchased from Takara Bio Inc, (Japan) was tested using the same methods as in Example 2.
Molecule,Remaining activity 84° C. (azo-casein) [%],Remaining activity 80° C. (azo-casein) [%],further results
B1,53,,Relative activity 75° C./65° C. (zein [1]): 129%
B2,,,thermostability (Relative Activity) 80° C./70° C. (zein [2]): 110%; thermostability (Relative Activity) 90° C./70° C. (zein [2]): 103%
B3,,43,Relative activity 75° C./65° C. (zein [1]): 154%
B4,,53,
B5,,94,
B6,,81,
B7,80,,
B8,67,,
B9,,59,
